Patent publication US20180364256A1 (WAYNE STATE UNIVERSITY, published 2018)
Where a chain is given by its changes, count along the chain named.

T1: N-terminal fragment of human cardiac troponin T (HcTnT-N69) (human)
T1 construct: Recombinantly produced and purified; immobilised on microtiter plates in the ELISA; also the immunogen; also called N69 peptide; isolated (free, cleaved) HcTnT-N69 peptide
T1 peptide: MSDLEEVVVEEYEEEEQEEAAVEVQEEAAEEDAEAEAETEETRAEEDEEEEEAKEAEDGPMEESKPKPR

B1: mouse monoclonal antibody 2H3 (antibody, IgM, V domains shown)
VH: GGGLVQPKGSLKLSCAASGFTFNTYAMNWVRQAPGKGLEWVARIRSKSNNYATYYADSVKDRFTISRDDSQSMLYLQMNNLKTEDTAMYYCVRHDGVAWFAYWGQGTLVTVSA
VL: LSLPVSLGDQASISCRSSQSIVHSNGNTYLEWYLQKPGQSPKLLIYKVSNRFSGVPDRFSGSGSGTDFTLKISRVKAEDLGVYYCFQGSHVPPTFGAGTKLELKR
notes: Mouse hybridoma mAb, IgM kappa (VH3/VL5); also called mAb 2H3; Class V mAb
B2: mouse monoclonal antibody 2D9 (antibody, IgM, V domains shown)
VH: B1 VH
VL: B1 VL with R16K, E31K
notes: Mouse hybridoma mAb, IgM kappa (VH3/VL7); also called mAb 2D9; Class VII mAb
B3: mouse monoclonal antibody 4F5 (antibody, IgM, V domains shown)
VH: B1 VH
VL: B1 VL with R16K
notes: Mouse hybridoma mAb, IgM kappa (VH3/VL6); also called mAb 4F5; Class VI mAb
B4: mouse monoclonal antibody 3H5 (antibody, IgM, V domains shown)
VH: B1 VH
VL: B1 VL with K76E
notes: Mouse hybridoma mAb, IgM kappa (VH3/VL4); also called mAb 3H5; Class IV mAb
B5: mouse monoclonal antibody 1D6 (antibody, V domains shown)
VH: GPELVKPGASVKISCKTSGYTFTENTIHWVKQSHGKSLEWVGGINPNNGGTNYNQKFKGRAALTVDKSSSTAYMELRSLTSEDSAVYYCARSWDWFAYWGQGTLVTVSA
VL: LSLPVSLGDQASISCRSSQSLVHSNGNTYLHWYLQKPGQSPKLLVYKVSNRFSGVPDRFSGSGSGTDFTLKIIRVEAEDLGVYFCSQSTRIPFTFGSGTKLEMKR
notes: Mouse hybridoma mAb, IgG1 kappa (VH1/VL1); they appear to lack the first N-terminal residues; also called mAb 1D6; Class I mAb
B6: mouse monoclonal antibody 2A8 (antibody, V domains shown)
VH: B5 VH
VL: B5 VL
notes: Mouse hybridoma mAb, IgG1 kappa (VH1/VL1), separately isolated hybridoma with the same variable regions as 1D6; also called Class I mAb; anti-N69 mAb
B7: mouse monoclonal antibody 2C1 (antibody, V domains shown)
VH: B5 VH
VL: B5 VL
notes: as for B6
B8: mouse monoclonal antibody 2D11 (antibody, IgG1, V domains shown)
VH: B5 VH
VL: B5 VL with E76K
notes: Mouse hybridoma mAb, IgG1 kappa (VH1/VL2); also called mAb 2D11; Class II mAb
B9: mouse monoclonal antibody 1E11 (antibody, IgG3, V domains shown)
VH: GAELAKPGASVKMSCKASGYTFTTYWMHWVKQRPGQGLEWIGFINPSTGYTEYNQKFKDKATLTADKSSSTAYMQLSSLTSGDSAVYYCARKSFAYWGHGTLVTVSA
VL: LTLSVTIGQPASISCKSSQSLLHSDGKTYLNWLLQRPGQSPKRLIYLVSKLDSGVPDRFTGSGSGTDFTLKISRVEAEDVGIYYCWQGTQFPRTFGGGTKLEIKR
notes: Mouse hybridoma mAb, IgG3 kappa (VH2/VL3); also called mAb 1E11; Class III mAb

Target: T1, N-terminal fragment of human cardiac …
Assay: assay not named in the sentence (ELISA titration per the Examples)
Experimental: (§1) Purified HcTnT-N69 (also called N69) having the amino acid sequences shown in SEQ ID NO:1 or intact human cTnT antigen was immobilized on microtiter plates. After washing and blocking the plastic surface with 1% BSA and 0.05% Tween-20, the immobilized antigen was incubated with serial dilutions of the anti-N69 mAbs. Following washes to remove the unbound antibody, the plates were further incubated with HRP-conjugated second antibody followed by washes and H₂O₂-ABTS substrate reaction. A₄₁₅ₙₘ curve for each assay well was recorded by an automated microplate reader.

binding result | Binder
binds | B1
binds | B2
binds | B3

Target: T1, N-terminal fragment of human cardiac …
Assay: indirect ELISA titration, antigen immobilised on plate
Experimental: as §1

binding result | Binder
binds | B4
binds | B5
binds | B6
binds | B7
binds | B8
binds | B9
